T1: TUCAN (Tumor Up-regulated CARD-containing Antagonist of Caspase Nine), full-length (Homo sapiens (Human), UniProt Q9Y2G2 131-537)
T1 construct: Full-length TUCAN expressed by transient transfection in HEK293T cells; also called full-length TUCAN; CARD-X
T1 sequence: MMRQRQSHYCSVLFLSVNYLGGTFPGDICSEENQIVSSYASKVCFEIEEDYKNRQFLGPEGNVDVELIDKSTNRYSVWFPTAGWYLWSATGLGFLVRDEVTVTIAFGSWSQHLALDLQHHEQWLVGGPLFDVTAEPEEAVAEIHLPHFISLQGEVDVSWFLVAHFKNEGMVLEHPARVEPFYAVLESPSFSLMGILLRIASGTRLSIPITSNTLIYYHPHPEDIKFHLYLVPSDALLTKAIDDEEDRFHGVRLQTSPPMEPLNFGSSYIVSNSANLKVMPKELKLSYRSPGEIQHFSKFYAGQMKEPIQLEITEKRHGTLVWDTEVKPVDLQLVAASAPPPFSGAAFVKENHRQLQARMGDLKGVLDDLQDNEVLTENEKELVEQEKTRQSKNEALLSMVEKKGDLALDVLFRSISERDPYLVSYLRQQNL

B1: pro-caspase-9 inactive mutant (Cys287/Ala) (enzyme)
chain: MDEADRRLLRRCRLRLVEELQVDQLWDALLSSELFRPHMIEDIQRAGSGSRRDQARQLIIDLETRGSQALPLFISCLEDTGQDMLASFLRTNRQAAKLSKPTLENLTPVVLRPEIRKPEVLRPETPRPVDIGSGGFGDVGALESLRGNADLAYILSMEPCGHCLIINNVNFCRESGLRTRTGSNIDCEKLRRRFSSPHFMVEVKGDLTAKKMVLALLELAQQDHGALDCCVVVILSHGCQASHLQFPGAVYGTDGCPVSVEKIVNIFNGTSCPSLGGKPKLFFIQAAGGEQKDHGFEVASTSPEDESPGSNPEPDATPFQEGLRTFDQLDAISSLPTPSDIFVSYSTFPGFVSWRDPKSGSWYVETLDDIFEQWAHSEDLQSLLLRVANAVSVKGIYKQMPGCFNFLRKKLFFKTS
B2: Bcl10 (CIPER; huE10) (other, UniProt O95999 1-233, looked up)
chain: MEPTAPSLTEEDLTEVKKDALENLRVYLCEKIIAERHFDHLRAKKILSREDTEEISCRTSSRKRAGKLLDYLQENPKGLDTLVESIRREKTQNFLIQKITDEVLKLRNIKLEHLKGLKCSSCEPFPDGATNNLSRSNSDESNFSEKLRASTVMYHPEGESSTTPFFSTNSSLNLPVLEVGRTENTIFSSTTLPRPGDPGAPPLPPDLQLEEEGTCANSSEMFLPLRSRTVSRQ
B3: TUCAN fragment lacking the CARD (residues 1-337) (other)
chain: MMRQRQSHYCSVLFLSVNYLGGTFPGDICSEENQIVSSYASKVCFEIEEDYKNRQFLGPEGNVDVELIDKSTNRYSVWFPTAGWYLWSATGLGFLVRDEVTVTIAFGSWSQHLALDLQHHEQWLVGGPLFDVTAEPEEAVAEIHLPHFISLQGEVDVSWFLVAHFKNEGMVLEHPARVEPFYAVLESPSFSLMGILLRIASGTRLSIPITSNTLIYYHPHPEDIKFHLYLVPSDALLTKAIDDEEDRFHGVRLQTSPPMEPLNFGSSYIVSNSANLKVMPKELKLSYRSPGEIQHFSKFYAGQMKEPIQLEITEKRHGTLVWDTEVKPVDLQLVAAS
notes: also called ΔCARD; ΔCARD fragment of TUCAN
B4: pro-Caspase-1 (enzyme, UniProt P29466 1-404, looked up)
chain: MADKVLKEKRKLFIRSMGEGTINGLLDELLQTRVLNKEEMEKVKRENATVMDKTRALIDSVIPKGAQACQICITYICEEDSYLAGTLGLSADQTSGNYLNMQDSQGVLSSFPAPQAVQDNPAMPTSSGSEGNVKLCSLEEAQRIWKQKSAEIYPIMDKSSRTRLALIICNEEFDSIPRRTGAEVDITGMTMLLQNLGYSVDVKKNLTASDMTTELEAFAHRPEHKTSDSTFLVFMSHGIREGICGKKHSEQVPDILQLNAIFNMLNTKNCPSLKDKPKVIIIQACRGDSPGVVWFKDSVGVSGNLSLPTTEEFEDDAIKKAHIEKDFIAFCSSTPDNVSWRHPTMGSVFIGRLIEHMQEYACSCDVEEIFRKVRFSFEQPDGRAQMPTTERVTLTRCFYLFPGH

Assays:
[1] = molecular target: B3; assay: co-immunoprecipitation, transfected cells, SDS-PAGE/immunoblot
Experimental: (§1) The TUCAN polypeptides were expressed by transient transfection in HEK293T cells together with epitope-tagged pro-caspase-9 or other proteins. […] Cell lysates were prepared from transfected cells and immunoprecipitations were performed using anti-Flag or anti-Myc antibodies, followed by SDS-PAGE/immunoblot analysis.
(§2) To determine the role of the CARD domain within TUCAN for interactions with pro-Caspase-9, fragments of TUCAN were expressed. […] Self-association of TUCAN was also confirmed by co-immunoprecipitation experiments, using HA and Myc-tagged proteins and contrasting the full-length, CARD-only, and ΔCARD proteins.

[2] = molecular target: T1, TUCAN (Tumor Up-regulated …); assay: co-immunoprecipitation, transfected HEK293T cells, SDS-PAGE/immunoblot
Experimental: as §1

[3] = molecular target: T1, TUCAN (Tumor Up-regulated …); assay: co-immunoprecipitation with HA- and Myc-tagged proteins
Experimental: as §1, §2

binding result [2]	Binder	other results
	B1	binding result [1]: no binding
no binding	B2	
	B3	binding result [3]: no binding
no binding	B4	
